In article PMC10127185, “Low complexity domains of the nucleocapsid protein of SARS-CoV-2 form amyloid fibrils” (Nature Communications, 2023):

Target: the molecule itself
Experiment: X-ray fiber diffraction

B1: NCAP central low complexity domain segment (construct LCD, residues 171–263) (domain or fragment)
chain: TFYAEGSRGGSQASSRSSSRSRNSSRNSTPGSSRGTSPARMAGNGGDAALALLLLDRLNQLESKMSGKGQQQQGQTVTKKSAAEASKKPRQKRT
notes: also called central LCD; LCD segment; not shown: 6xHis-SUMO, N-terminal, cleaved
  binding result: binds
